Assay results from PMC5310649 (Biochemistry, 2016).

Target: the molecule itself
Experiment: thin section electron microscopy

B1: FtsZ-mVenus (FtsZ with the YFP variant mVenus fused to the C terminus) (natural protein, E. coli, UniProt P0A9A6 1-383, looked up)
chain: MFEPMELTNDAVIKVIGVGGGGGNAVEHMVRERIEGVEFFAVNTDAQALRKTAVGQTIQIGSGITKGLGAGANPEVGRNAADEDRDALRAALEGADMVFIAAGMGGGTGTGAAPVVAEVAKDLGILTVAVVTKPFNFEGKKRMAFAEQGITELSKHVDSLITIPNDKLLKVLGRGISLLDAFGAANDVLKGAVQGIAELITRPGLMNVDFADVRTVMSEMGYAMMGSGVASGEDRAEEAAEMAISSPLLEDIDLSGARGVLVNITAGFDLRLDEFETVGNTIRAFASDNATVVIGTSLDPDMNDELRVTVVATGIGMDKRPEITLVTNKQVQQPVMDRYQQHGMAPLTQEQKPVAKVVNDNAPQTAKEPDYLDIPAFLRKQAD
binding result: binds
